Substitutions are numbered along the chain they refer to.
Legend:
[1] = target: T1, Her018P, Her2 ECD with a deletion in the CR2 (Domain IV) region expressed with a mIgG2a Fc tail (human; murine, UniProt P04626 23-599); test: ELISA, soluble scFv on Her018
T1 construct: Shares the name HER018 with the trastuzumab SMIP; also called 1.8 (Dimer); dimeric HER018; not shown: murine IgG2a Fc tail (C-terminal dimerising carrier) and any junction residues

L1-CR1 (Her054P) = target: T2, L1-CR1 (Her054P); test: ELISA, soluble scFv on L1-CR1
T2 construct: also called 1.0
T2 chain: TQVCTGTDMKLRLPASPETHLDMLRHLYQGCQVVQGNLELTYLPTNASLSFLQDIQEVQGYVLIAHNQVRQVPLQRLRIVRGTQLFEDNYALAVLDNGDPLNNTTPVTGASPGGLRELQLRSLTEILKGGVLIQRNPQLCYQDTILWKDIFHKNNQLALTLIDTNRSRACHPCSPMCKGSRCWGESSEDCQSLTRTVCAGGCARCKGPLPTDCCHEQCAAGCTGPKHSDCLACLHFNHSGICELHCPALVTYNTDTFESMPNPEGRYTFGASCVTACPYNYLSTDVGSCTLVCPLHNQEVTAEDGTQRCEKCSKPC
Description: (§1) Various Her2-Fc proteins (e.g., Her008P, Her017P, Her018P, etc.) or a negative control murine IgG2a protein were coated overnight at 4° C. on 96-well Nunc Maxisorp at a concentration of 1 ug/ml in PBS. Alternatively, pre-blocked streptavidin-coated plates (Greiner) were coated with biotinylated Her2-Fc proteins for 1 hour at room temperature at a concentration of 1 ug/ml in block buffer (3% skim milk/1% BSA/PBS). Plates were washed three times using PBS and blocked for 1 hour at room temperature in 3% skim milk/1% BSA/PBS. Phage or peripreps were prepared as described above and were blocked for 1 hour at room temperature in an equal volume of 6% skim milk/1% BSA/PBS. Blocked plates were washed five times with PBS and 50 μl/well of blocked phage or periprep were transferred to the appropriate plates and incubated for 1 hour at room temperature. […] Plates were incubated for a further hour at room temperature and washed seven times with PBS. Signal was developed using TMB, the reaction stopped with H₂SO₄ and the absorbance read at 450 nm on an Envision plate reader (Perkin Elmer).

Full length HER2 = target: T3, Full length HER2 (human, UniProt P04626 23-1255); test: cell ELISA, phage scFv, SKBR3 cells
T3 construct: Endogenous HER2 on SKBR3, BT474, 22rv1, MDA-MB-175, MDA-MB-453 and MDA-MB-361 cells; also called HER2 on the cell surface; ErbB2

EQR (Her017P) = target: T4, EQR (Her017P); test: ELISA, soluble scFv on EQR
T4 construct: also called HER2 EQR-Fc; HER2 EQR DIMER
Description: as §1

[2] = target: T5, Her008P, full-length extracellular domain (ECD) of Her2 expressed with a mIgG2a Fc tail (human; murine, UniProt P04626 23-652); test: ELISA, soluble scFv on ECD
T5 construct: also called SIIS; SIIS (Dimer); not shown: murine IgG2a Fc tail

ECD region of Her2 = target: T6, ECD region of Her2 (human, UniProt P04626 23-652); test: screening after three rounds of phage selection, soluble periplasmic scFv
T6 construct: extracellular domain; Generic target of the scFv screen; also called extracellular domain (ECD) of Her2 (ErbB2)

B1: S1R3B2_DP47_1E8 (scFv, V domains shown)
VH: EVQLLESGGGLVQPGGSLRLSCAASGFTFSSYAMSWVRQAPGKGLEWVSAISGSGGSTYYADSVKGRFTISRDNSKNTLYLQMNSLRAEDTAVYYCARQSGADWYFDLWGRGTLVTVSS
VL: QAVLTQPSAVSGAPGQRVTISCTGTSSNIGTNYLVHWYQQRPGTAPQLLVSGNNTRPSGVTDRFSVSKSATSASLAITGLQAEDEADYYCQTYDINLRVWVFGGGTKVTVL
notes: scFv, on phage in the screen; also called Her2_S1R3B2_DP47_1E8
- binding result [1]: no binding
- binding result (L1-CR1 (Her054P)): no binding
- binding result (Full length HER2): binds

B2: S1R2A_CS_1D3 (scFv, V domains shown)
VH: EVQLVQSGAEVKKPGASVKVSCKASGYSFTAFYIHWVRQAPGQGLEYLGWIDPNTGATKYAQRFQGRVIMTWDTSITTATMELSRLTSDDSAVYYCVRDLREWGYELSVEYWGRGTLVTVSS
VL: not shown
notes: scFv, on phage in the screen
- binding result (EQR (Her017P)): no binding
- binding result [1]: no binding
- binding result (L1-CR1 (Her054P)): no binding
- binding result (Full length HER2): binds

B3: S1R3C1_BMV_1H11 (scFv, V domains shown)
VH: GVQLVESGGGLVKPGGSLRLSCAASGFTFSSYNMNWVRQAPGKGLEWVSAISGSGGSTYYADSVTGRFTISRDNSKNTLYLQMNSLRAEDTAVYYCAKDTSGWYGDGMDVWGRGTLVTVSS
VL: DIQMTQSPSTLSASIGDRVTITCRASEGIYHWLAWYQQKPGKAPKLLIYKASSLASGAPSRFSGSGSGTDFTLTISSLQPDDFATYYCQQYSNYPLTFGGGTKLEIK
notes: scFv, soluble from bacterial periplasm in the screen; also called Her2_S1R3C1_BMV_1H11
- binding result (EQR (Her017P)): no binding
- binding result [1]: no binding
- binding result (L1-CR1 (Her054P)): no binding

B4: S1R3A1_CS_1B10 (scFv, V domains shown)
VH: EVQLVQSGAEVKKPGASVRVSCKGSGNTFTGHYIHWVRQAPGQGLEWLGWIDPNTGDIQYSENFKGSVTLTRDPSINSVFMDLIRLTSDDTAMYYCAREGAGLANYYYYGLDVWGRGTMVTVSS
VL: QTVVLQEPSFSVSPGGTVTLTCGLNFGSVSTAYYPSWYQQTPGQAPRTLIYGTNIRSSGVPDRFSGSIVGNKAALTITGAQTEDESDYYCALYMGSGMLFGGGTKVTVL
notes: scFv, soluble from bacterial periplasm in the screen; also called Her2_S1R3A1_CS_1B10
- binding result [2]: binds
- binding result (EQR (Her017P)): binds
- binding result [1]: binds
- binding result (ECD region of Her2): binds

B5: S1R3B2_BMV_1H5 (scFv, V domains shown)
VH: EVQLVQSGGGLVRPGGSLRLSCAASGFSFSDYYMTWIRQIPGKGLEWVAVIWNDGSDRYYADSVKGRFTISRDNSKNTLFLQMSSLRDEDTALYYCVRGGPTASSGFDYWGRGTLVTVSS
VL: SSELTQPASVSGSPGQSITISCTGTSSDVGGYNYVSWYLQHPGKAPKLMIYEGSKRPSGVSNRFSGSKSGNTASLTISGLQAEDEADYYCSSYTTRSTRVFGGGTKLTVL
notes: scFv, on phage in the screen; also called Her2_S1R3B2_BMV_1H5
- binding result (L1-CR1 (Her054P)): no binding
- binding result (Full length HER2): binds

B6: S1R3A1_BMV_1G4 (scFv, V domains shown)
VH: QVQLVESGAEVKKPGASVKVSCKASGYTFTSYDINWVRQAPGQRLEWMGWINAGNGNTKYSQKFQGRVTITRDTSASTAYMELRSLRSDDTAVYYCARGRSYGHPYYFDYWGQGTLVTVSS
VL: B5 VL with S1Q, E3V, L39Q
notes: scFv, soluble from bacterial periplasm in the screen; also called Her2_S1R3A1_BMV_1G4
- binding result (EQR (Her017P)): no binding
- binding result [1]: no binding
- binding result (L1-CR1 (Her054P)): no binding

B7: S1R3B2_DP47_1C9 (scFv, V domains shown)
VH: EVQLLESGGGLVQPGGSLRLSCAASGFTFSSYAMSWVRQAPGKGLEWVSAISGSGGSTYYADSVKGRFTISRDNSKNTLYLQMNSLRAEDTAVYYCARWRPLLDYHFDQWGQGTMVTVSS
VL: QSVLTQPPSASGTPGQTVTISCSGSSSNIGSSVVNWYQQFPGTAPKVLVYSNTQRPSGVPDRFSGSRSGTSASLAISGLQSEDEADYYCLAWDASLNGWVFGGGTKLTVL
notes: scFv, on phage in the screen; also called Her2_S1R3B2_DP47_1C9
- binding result [1]: no binding
- binding result (L1-CR1 (Her054P)): no binding
- binding result (Full length HER2): binds

B8: S1R3A1_CS_1B9 (scFv, V domains shown)
VH: KVQLVQSGTEVKKPGESLKISCQGSGYRFSSDWIAWVRQMPGKGLEWMGIVYPGDSDTRYSPSFQGQVTISADKSISTAYLQWSGLKASDTAKYYCARVQQAVGAKGYAMDVWGKGTLVTVSS
VL: QTVVIQEPSFSVSPGGTVTLTCGLSSGSVSTSYYPSWYRQTPGQAPHTLIHNTKIRSSGVPDRFSGSILGNNAALTITGAQADDESDYYCLLYMGSGIYVFGGGTKLTVL
notes: scFv, soluble from bacterial periplasm in the screen; also called Her2_S1R3A1_CS_1B9
- binding result [2]: binds
- binding result (EQR (Her017P)): binds
- binding result [1]: binds
- binding result (ECD region of Her2): binds

B9: S1R3B2_DP47_1E10 (scFv, V domains shown)
VH: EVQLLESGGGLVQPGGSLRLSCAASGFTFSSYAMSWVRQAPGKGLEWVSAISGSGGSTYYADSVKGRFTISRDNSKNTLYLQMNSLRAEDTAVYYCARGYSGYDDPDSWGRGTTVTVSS
VL: HVILTQPPSTSGTPGQTVTISCSGSSSNIGSHYVYWYQQLPGTAPKLLIYRNNQRPSGVPDRFSGSKSGTSASLAISGLRSEDETDYYCAAWDDSLSGRVFGTGTKLTVL
notes: scFv, on phage in the screen; also called Her2_S1R3B2_DP47_1E10
- binding result (EQR (Her017P)): no binding
- binding result [1]: no binding
- binding result (L1-CR1 (Her054P)): no binding
- binding result (Full length HER2): binds

B10: S1R3B2_BMV_1E1 (scFv, V domains shown)
VH: EVQLVETGGGVVQPGGSLSLSCAASGFTFSSYGMQWVRQAPGKGLEWVAFIRYDGSSEYYADSVKGRFTISRDNSKNTLYLQMNSLRAEDTAVYYCGRTLESSLWGKGTLVTVSS
VL: QSVLTQPPSVSAAPGQKVTISCSGSTSNIGNNYVSWYQQHPGKAPKLMIYDVSKRPSGVPDRFSGSKSGNSASLDISGLQSEDEADYYCAAWDDSLSEFLFGTRTKLTVL
notes: scFv, on phage in the screen; also called Her2_S1R3B2_BMV_1E1
- binding result (EQR (Her017P)): no binding
- binding result [1]: no binding
- binding result (L1-CR1 (Her054P)): no binding
- binding result (Full length HER2): binds

B11: S1R2A_CS_1F7 (scFv, V domains shown)
VH: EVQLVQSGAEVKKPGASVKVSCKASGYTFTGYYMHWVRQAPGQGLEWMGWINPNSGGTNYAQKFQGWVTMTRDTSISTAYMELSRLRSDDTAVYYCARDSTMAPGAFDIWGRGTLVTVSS
VL: QSVLTQPPSVSVAPGQTARMTCGGNNIESKTVHWYQQKPGQAPVLVVYNDNVRPSGIPARFSGSNSGNTATLTINRVEAGDEADYYCQVWDSSRDQGVFGGGTKLTVL
notes: scFv, on phage in the screen
- binding result (L1-CR1 (Her054P)): no binding
- binding result (Full length HER2): binds

B12: S1R3C1_CS_1A6 (scFv, V domains shown)
VH: EVQLVQSGAEVKKPGESLKISCKGFGYNFRSAWIGWVRQMPGKGLEWMGVIYPGDSDVRYSPSFQGQVTISADKSISTAYLQWSSLKASDTAMYYCTRPVGQWVDSDYWGKGTLVTVSS
VL: QSVLTQPPSASGTPGQRVTISCSGSSSNIGTNTVNWYQQLPGTAPKLLIYTSNQRPSGVPARFSASNSGTSASLAISGLRSEDEADYYCAAWDDKLSGAVFGGGTKLTVL
notes: scFv, on phage in the screen; also called Her2_S1R3C1_CS_1A6
- binding result (L1-CR1 (Her054P)): no binding
- binding result (Full length HER2): binds

B13: S1R3B1_BMV_1C12 (scFv, V domains shown)
VH: EVQLVQSGGGVVQPGRSLRLSCAASGFTFSSYGMHWVRQAPGKGLEWVAVISYDGSIKYYADSVKGRFTISRDNSKNTLYLQMNSLRAEDTAVYYCARTGEYSGYDTSGYSNWGQGTLVTVSS
VL: QSVLTQPPSASGTPGQRVTISCSGSSSNIGSNTVNWYQRLPGAAPQLLIYNNDQRPSGIPDRFSGSKSGTSGSLVISGLQSEDEADYYCASWDDSLNGRVFGGGTKLTVL
notes: scFv, soluble from bacterial periplasm in the screen; also called Her2_S1R3B1_BMV_1C12
- binding result (L1-CR1 (Her054P)): no binding

B14: S1R3B1_DP47_1E1 (scFv, V domains shown)
VH: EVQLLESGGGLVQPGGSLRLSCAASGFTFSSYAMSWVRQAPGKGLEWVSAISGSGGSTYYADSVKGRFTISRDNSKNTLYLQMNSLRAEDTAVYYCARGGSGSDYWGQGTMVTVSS
VL: NFMLTQPHSVSGSPGKTVTISCTRSSGYIDSKYVQWYQQRPGSAPTTVIYEDNRRPSGVPDRFSGSIDSSSNSASLTISGLETEDEADYYCQSYDDTNVVFGGGTKVTVL
notes: scFv, soluble from bacterial periplasm in the screen; also called Her2_S1R3B1_DP47_1E1
- binding result (EQR (Her017P)): no binding
- binding result [1]: no binding
- binding result (L1-CR1 (Her054P)): no binding

B15: S1R3C1_CS_1B10 (scFv, V domains shown)
VH: QVQLQQSGAEVKKPGSSVKVSCKASGGTISNYAISWVRLAPGQGLEWMGSIVPLHGTTNFAQKFQGRVTITADESTSTSYMEVNVLTYEDTAMYYCASLNWGYWGRGTLVTVSS
VL: NFMLTQPHSVSESPGKTVTISCTGSSGSIASNYVQWYQQRPDSAPTTVIYEDNRRSSGVPDRFSGSIDSSSNSASLSISGLKTEDEADYYCQSYDSSGHVVFGGGTKLTVL
notes: scFv, on phage in the screen; also called Her2_S1R3C1_CS_1B10
- binding result (L1-CR1 (Her054P)): no binding

B16: S1R3B1_BMV_1A10 (scFv, V domains shown)
VH: QMQLVQSGGGVVQPGRSLRLSCAASGFTFSSYGMHWVRQAPGKGLEWVAVISYDGSIKYYADSVKGRFTISRDNSKNTLYLQMNSLRAEDTGVYYCSKDRYSSGWYSSDAFDIWGRGTMVTVSS
VL: SSELTQDPAVSVALGQTVRITCQGDSLRSYYASWYQQKPGQAPVLVIYGKNNRPSGIPDRFSGSSSGNTASLTITGAQAEDEADYYCHSRDSSGNHVLFGGGTKLTVL
notes: scFv, soluble from bacterial periplasm in the screen; also called Her2_S1R3B1_BMV_1A10
- binding result (EQR (Her017P)): no binding
- binding result [1]: no binding
- binding result (L1-CR1 (Her054P)): no binding

B17: S1R2C_CS_1H12 (scFv, V domains shown)
VH: EVQLVETGGGLVQPGGSLRLSCAASGFTFSSYGMNWVRQAPGKGLEWVSYISSSGNTIFYADSVKGRFTISRDSAKNSVSLQMNSLRDEDTAVYYCASYYSYYYGMDAWGQGTMVTVSS
VL: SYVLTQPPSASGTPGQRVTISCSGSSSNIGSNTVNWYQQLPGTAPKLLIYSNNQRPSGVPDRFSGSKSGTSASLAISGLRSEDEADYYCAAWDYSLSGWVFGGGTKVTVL
notes: scFv, on phage in the screen
- binding result (EQR (Her017P)): no binding
- binding result [1]: no binding
- binding result (L1-CR1 (Her054P)): no binding
- binding result (Full length HER2): binds

B18: S1R3C1_DP47_1H1 (scFv, V domains shown)
VH: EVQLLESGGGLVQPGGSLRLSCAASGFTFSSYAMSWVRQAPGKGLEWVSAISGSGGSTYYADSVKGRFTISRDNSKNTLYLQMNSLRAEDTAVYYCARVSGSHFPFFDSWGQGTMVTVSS
VL: QSVLTQPPSVSVAPGQTARITCGGDKIGHKSVHWYQQKPGQAPVLLVYDDRKRPSGIPERFSGSNSGNTATLTISRVEAGDEAAYHCQVWDRSSDPYVFGTGTKVTVL
notes: scFv, soluble from bacterial periplasm in the screen; also called Her2_S1R3C1_DP47_1H1
- binding result (EQR (Her017P)): no binding
- binding result [1]: no binding
- binding result (L1-CR1 (Her054P)): no binding

— patent publication US20090258005A1 (TRUBION PHARMACEUTICALS, published 2009)
